Results published in patent publication US20220204580A1 (AstraZeneca / MedImmune, published 2022).
Numbered stars: 1 amine (or outer) side, 2 acyl side, 3 side chain; on linkers, the order of the positions; unused ones are H or OH. Bridge positions count the residues as written; N and C are the ends. Square brackets hold non-standard residues; d marks the D form. Side chains are listed from the residue outwards. Ends that are not written are not given here. * marks the point of attachment. C18 diacid = O=C(O)CCCCCCCCCCCCCCCCC(=O)*; γGlu = O=C(O)[C@H](CCC(=O)[*:2])N[*:1]; αMeF = C[C@](N)(Cc1ccccc1)C(=O)O; Aib = CC(C)(N)C(=O)O

T1: human calcitonin receptor (human, UniProt P30988 25-474)
T1 sequence (looked up): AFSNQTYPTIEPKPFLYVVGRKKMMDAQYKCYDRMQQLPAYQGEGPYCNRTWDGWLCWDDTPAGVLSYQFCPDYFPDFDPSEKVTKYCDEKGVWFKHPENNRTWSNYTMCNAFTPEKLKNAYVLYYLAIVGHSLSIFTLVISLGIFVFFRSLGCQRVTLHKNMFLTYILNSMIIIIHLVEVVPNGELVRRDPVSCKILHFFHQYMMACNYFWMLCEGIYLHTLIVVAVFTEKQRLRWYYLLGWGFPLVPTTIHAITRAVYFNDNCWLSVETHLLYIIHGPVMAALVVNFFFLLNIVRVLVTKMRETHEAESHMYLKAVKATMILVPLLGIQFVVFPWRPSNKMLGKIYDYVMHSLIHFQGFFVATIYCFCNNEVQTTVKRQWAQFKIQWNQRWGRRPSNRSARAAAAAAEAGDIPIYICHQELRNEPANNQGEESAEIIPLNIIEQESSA

T2: human amylin receptor (calcitonin receptor co-expressed with receptor activity modifying protein, RAMP3) (human, UniProt P30988 25-474; O60896 24-148)
T2 sequence (looked up) 1: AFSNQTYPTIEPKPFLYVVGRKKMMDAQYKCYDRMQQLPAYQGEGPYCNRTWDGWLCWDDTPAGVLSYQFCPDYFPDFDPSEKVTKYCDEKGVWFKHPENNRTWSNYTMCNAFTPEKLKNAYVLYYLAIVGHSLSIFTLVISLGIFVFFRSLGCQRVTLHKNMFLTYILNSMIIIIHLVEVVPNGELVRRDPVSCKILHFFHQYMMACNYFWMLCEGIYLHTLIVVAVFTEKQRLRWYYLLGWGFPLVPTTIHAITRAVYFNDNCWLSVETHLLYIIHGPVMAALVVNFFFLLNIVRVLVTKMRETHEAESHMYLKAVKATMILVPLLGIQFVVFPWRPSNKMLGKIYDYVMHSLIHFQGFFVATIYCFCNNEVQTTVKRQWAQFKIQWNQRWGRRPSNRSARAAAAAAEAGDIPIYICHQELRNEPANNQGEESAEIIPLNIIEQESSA
T2 sequence (looked up) 2: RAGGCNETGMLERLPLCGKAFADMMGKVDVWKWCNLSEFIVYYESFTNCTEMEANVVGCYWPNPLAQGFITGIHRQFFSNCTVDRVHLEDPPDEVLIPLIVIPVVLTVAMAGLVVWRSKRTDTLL


How the values were obtained:
[1] = molecular target: T1, human calcitonin receptor; test: cell-based or functional assay
[2] = molecular target: T2, human amylin receptor (calcitonin …); test: cell-based or functional assay

Row | EC50 (cAMP production) [1] [pM] | EC50 (cAMP production) [2] [pM] | Ratio (EC50 hCTR / EC50 hAMYR3) [2] | Binder
1 | 944 | 684 | 1 | K([γGlu-C18 diacid])KCNTATCATQRLANFL[Aib]HSSNNFGPILP[Aib]TNVGSNTY-NH2 (disulfide 3-8; N-terminus assumed; SMILES CC[C@H](C)[C@H](NC(=O)[C@@H]1CCCN1C(=O)CNC(=O)[C@H](Cc1ccccc1)NC(=O)[C@H](CC(N)=O)NC(=O)[C@H](CC(N)=O)NC(=O)[C@H](CO)NC(=O)[C@H](CO)NC(=O)[C@H](Cc1c[nH]cn1)NC(=O)C(C)(C)NC(=O)[C@H](CC(C)C)NC(=O)[C@H](Cc1ccccc1)NC(=O)[C@H](CC(N)=O)NC(=O)[C@H](C)NC(=O)[C@H](CC(C)C)NC(=O)[C@H](CCCNC(=N)N)NC(=O)[C@H](CCC(N)=O)NC(=O)[C@@H](NC(=O)[C@H](C)NC(=O)[C@@H]1CSSC[C@H](NC(=O)[C@H](CCCCN)NC(=O)[C@@H](N)CCCCNC(=O)CC[C@H](NC(=O)CCCCCCCCCCCCCCCCC(=O)O)C(=O)O)C(=O)N[C@@H](CC(N)=O)C(=O)N[C@@H]([C@@H](C)O)C(=O)N[C@@H](C)C(=O)N[C@@H]([C@@H](C)O)C(=O)N1)[C@@H](C)O)C(=O)N[C@@H](CC(C)C)C(=O)N1CCC[C@H]1C(=O)NC(C)(C)C(=O)N[C@H](C(=O)N[C@@H](CC(N)=O)C(=O)N[C@H](C(=O)NCC(=O)N[C@@H](CO)C(=O)N[C@@H](CC(N)=O)C(=O)N[C@H](C(=O)N[C@@H](Cc1ccc(O)cc1)C(N)=O)[C@@H](C)O)C(C)C)[C@@H](C)O) [Peptide 97 (SEQ ID NO: 97)]
2 | 1820 | 3800 | 0.5 | K([γGlu-C18 diacid])KCNTATCATQRLANFL[Aib]HSSNNFGPILPPTN[Aib]GSNTY-NH2 (disulfide 3-8; N-terminus assumed; SMILES CC[C@H](C)[C@H](NC(=O)[C@@H]1CCCN1C(=O)CNC(=O)[C@H](Cc1ccccc1)NC(=O)[C@H](CC(N)=O)NC(=O)[C@H](CC(N)=O)NC(=O)[C@H](CO)NC(=O)[C@H](CO)NC(=O)[C@H](Cc1c[nH]cn1)NC(=O)C(C)(C)NC(=O)[C@H](CC(C)C)NC(=O)[C@H](Cc1ccccc1)NC(=O)[C@H](CC(N)=O)NC(=O)[C@H](C)NC(=O)[C@H](CC(C)C)NC(=O)[C@H](CCCNC(=N)N)NC(=O)[C@H](CCC(N)=O)NC(=O)[C@@H](NC(=O)[C@H](C)NC(=O)[C@@H]1CSSC[C@H](NC(=O)[C@H](CCCCN)NC(=O)[C@@H](N)CCCCNC(=O)CC[C@H](NC(=O)CCCCCCCCCCCCCCCCC(=O)O)C(=O)O)C(=O)N[C@@H](CC(N)=O)C(=O)N[C@@H]([C@@H](C)O)C(=O)N[C@@H](C)C(=O)N[C@@H]([C@@H](C)O)C(=O)N1)[C@@H](C)O)C(=O)N[C@@H](CC(C)C)C(=O)N1CCC[C@H]1C(=O)N1CCC[C@H]1C(=O)N[C@H](C(=O)N[C@@H](CC(N)=O)C(=O)NC(C)(C)C(=O)NCC(=O)N[C@@H](CO)C(=O)N[C@@H](CC(N)=O)C(=O)N[C@H](C(=O)N[C@@H](Cc1ccc(O)cc1)C(N)=O)[C@@H](C)O)[C@@H](C)O) [Peptide 99 (SEQ ID NO: 99)]
3 | 972 | 942 | 1 | K([γGlu-C18 diacid])KCNTATCATQRLANFL[Aib]HSSNNFGPILPPT[Aib]VGSNTY-NH2 (disulfide 3-8; N-terminus assumed; SMILES CC[C@H](C)[C@H](NC(=O)[C@@H]1CCCN1C(=O)CNC(=O)[C@H](Cc1ccccc1)NC(=O)[C@H](CC(N)=O)NC(=O)[C@H](CC(N)=O)NC(=O)[C@H](CO)NC(=O)[C@H](CO)NC(=O)[C@H](Cc1c[nH]cn1)NC(=O)C(C)(C)NC(=O)[C@H](CC(C)C)NC(=O)[C@H](Cc1ccccc1)NC(=O)[C@H](CC(N)=O)NC(=O)[C@H](C)NC(=O)[C@H](CC(C)C)NC(=O)[C@H](CCCNC(=N)N)NC(=O)[C@H](CCC(N)=O)NC(=O)[C@@H](NC(=O)[C@H](C)NC(=O)[C@@H]1CSSC[C@H](NC(=O)[C@H](CCCCN)NC(=O)[C@@H](N)CCCCNC(=O)CC[C@H](NC(=O)CCCCCCCCCCCCCCCCC(=O)O)C(=O)O)C(=O)N[C@@H](CC(N)=O)C(=O)N[C@@H]([C@@H](C)O)C(=O)N[C@@H](C)C(=O)N[C@@H]([C@@H](C)O)C(=O)N1)[C@@H](C)O)C(=O)N[C@@H](CC(C)C)C(=O)N1CCC[C@H]1C(=O)N1CCC[C@H]1C(=O)N[C@H](C(=O)NC(C)(C)C(=O)N[C@H](C(=O)NCC(=O)N[C@@H](CO)C(=O)N[C@@H](CC(N)=O)C(=O)N[C@H](C(=O)N[C@@H](Cc1ccc(O)cc1)C(N)=O)[C@@H](C)O)C(C)C)[C@@H](C)O) [Peptide 98 (SEQ ID NO: 98)]
4 | 3640 | 177 | 21 | K([γGlu-γGlu-C18 diacid])CNTATCATQRLAEFLRHSSNN[αMeF]GPILPPTNVGSNTY-NH2 (disulfide 2-7; N-terminus assumed; SMILES CC[C@H](C)[C@H](NC(=O)[C@@H]1CCCN1C(=O)CNC(=O)[C@](C)(Cc1ccccc1)NC(=O)[C@H](CC(N)=O)NC(=O)[C@H](CC(N)=O)NC(=O)[C@H](CO)NC(=O)[C@H](CO)NC(=O)[C@H](Cc1c[nH]cn1)NC(=O)[C@H](CCCNC(=N)N)NC(=O)[C@H](CC(C)C)NC(=O)[C@H](Cc1ccccc1)NC(=O)[C@H](CCC(=O)O)NC(=O)[C@H](C)NC(=O)[C@H](CC(C)C)NC(=O)[C@H](CCCNC(=N)N)NC(=O)[C@H](CCC(N)=O)NC(=O)[C@@H](NC(=O)[C@H](C)NC(=O)[C@@H]1CSSC[C@H](NC(=O)[C@@H](N)CCCCNC(=O)CC[C@H](NC(=O)CC[C@H](NC(=O)CCCCCCCCCCCCCCCCC(=O)O)C(=O)O)C(=O)O)C(=O)N[C@@H](CC(N)=O)C(=O)N[C@@H]([C@@H](C)O)C(=O)N[C@@H](C)C(=O)N[C@@H]([C@@H](C)O)C(=O)N1)[C@@H](C)O)C(=O)N[C@@H](CC(C)C)C(=O)N1CCC[C@H]1C(=O)N1CCC[C@H]1C(=O)N[C@H](C(=O)N[C@@H](CC(N)=O)C(=O)N[C@H](C(=O)NCC(=O)N[C@@H](CO)C(=O)N[C@@H](CC(N)=O)C(=O)N[C@H](C(=O)N[C@@H](Cc1ccc(O)cc1)C(N)=O)[C@@H](C)O)C(C)C)[C@@H](C)O) [Peptide 11 (SEQ ID NO: 11)]
